T1: human FcγRIIa type R (human, UniProt P12318 36-217)
T1 construct: also called FcγRIIaR; FcγRIIa(R)
T1 chain: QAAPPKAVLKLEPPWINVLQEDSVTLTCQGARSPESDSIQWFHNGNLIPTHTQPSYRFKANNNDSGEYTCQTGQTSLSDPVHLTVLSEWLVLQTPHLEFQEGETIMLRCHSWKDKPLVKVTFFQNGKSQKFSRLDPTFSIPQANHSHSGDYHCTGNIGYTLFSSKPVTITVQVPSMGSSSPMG

T2: human FcγRIIa type H (human, UniProt P12318 36-217)
T2 construct: Whole entry named for FcγRIIa allotype H131 (AAH20823.1); also called FcγRIIaH; FcγRIIa(H)
T2 sequence: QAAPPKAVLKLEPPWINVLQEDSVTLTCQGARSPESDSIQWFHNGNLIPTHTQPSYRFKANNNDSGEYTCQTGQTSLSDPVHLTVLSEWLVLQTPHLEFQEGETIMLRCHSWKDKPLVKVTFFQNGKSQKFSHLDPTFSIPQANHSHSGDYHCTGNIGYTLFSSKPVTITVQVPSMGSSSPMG

T3: human FcγRIIb (human, UniProt P31994 43-217)
T3 construct: also called FcγIIB
T3 sequence: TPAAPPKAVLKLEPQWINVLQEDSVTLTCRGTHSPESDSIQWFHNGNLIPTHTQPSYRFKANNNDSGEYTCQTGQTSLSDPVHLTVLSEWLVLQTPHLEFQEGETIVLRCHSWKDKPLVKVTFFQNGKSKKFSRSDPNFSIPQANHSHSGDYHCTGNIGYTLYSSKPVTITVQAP

T4: human FcγRIIa type H (human, UniProt P12318 36-217)
T4 construct: also called FcgRIIaH; FcγRIIa(H)
T4 sequence: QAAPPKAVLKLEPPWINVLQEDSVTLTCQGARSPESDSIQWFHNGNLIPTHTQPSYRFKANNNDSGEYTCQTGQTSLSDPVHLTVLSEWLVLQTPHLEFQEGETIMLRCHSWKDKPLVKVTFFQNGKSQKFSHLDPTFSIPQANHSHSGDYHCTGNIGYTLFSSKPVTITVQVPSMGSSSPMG


Legend:
human FcγRIa [1] = target: T5, human FcγRIa (human, UniProt P12314 16-292, limits assumed); experiment: SPR (Biacore), FcγR over captured antibody; amount bound relative to IL6R-BF648/IL6R-L x100
T5 construct: also called CD64
T5 sequence (P12314 16-292 limits assumed): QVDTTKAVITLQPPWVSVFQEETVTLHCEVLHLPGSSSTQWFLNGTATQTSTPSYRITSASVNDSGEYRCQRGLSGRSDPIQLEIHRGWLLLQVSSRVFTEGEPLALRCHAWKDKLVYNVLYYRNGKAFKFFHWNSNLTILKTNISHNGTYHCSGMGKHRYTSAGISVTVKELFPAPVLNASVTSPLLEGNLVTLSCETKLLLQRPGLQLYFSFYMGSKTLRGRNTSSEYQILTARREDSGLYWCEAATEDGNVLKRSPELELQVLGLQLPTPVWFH

human FcγRIIa type R = target: T1, human FcγRIIa type R; experiment: as above
human FcγRIIa type H [2] = target: T2, human FcγRIIa type H; experiment: as above
human FcγRIIb = target: T3, human FcγRIIb; experiment: as above
human FcγRIIIa type V [3] = target: T6, human FcγRIIIa type V (human, UniProt P08637 17-208, limits assumed); experiment: as above
T6 construct: also called FcγRIIIaV; FcγRIIIa(V)
T6 sequence (P08637 other isoform, or with tags, fused parts or gaps limits assumed): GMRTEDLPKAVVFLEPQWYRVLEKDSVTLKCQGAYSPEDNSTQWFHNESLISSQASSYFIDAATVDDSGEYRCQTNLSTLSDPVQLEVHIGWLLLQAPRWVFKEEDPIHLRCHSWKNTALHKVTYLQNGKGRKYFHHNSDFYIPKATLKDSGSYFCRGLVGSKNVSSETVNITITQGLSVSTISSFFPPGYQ

human FcγRIa [4] = target: T7, human FcγRIa (human, UniProt P12314 16-292, limits assumed); experiment: SPR (Biacore); binding amount divided by that of control IL6R-BF648/IL6R-L, x100
T7 construct: also called FcgRIa; CD64
T7 sequence (P12314 16-292 limits assumed): as the sequence (P12314 16-292 limits assumed) above
Protocol: (§1) According to the following method, relative binding activities were calculated for the results of analyzing interactions with the respective FcγRs.

human FcγRIIa type H [5] = target: T4, human FcγRIIa type H; experiment: as above
Protocol: as §1

human FcγRIIIa type V [6] = target: T8, human FcγRIIIa type V (human, UniProt P08637 17-208, limits assumed); experiment: as above
T8 construct: The assay used allotype V158; also called FcgRIIIaV; FcγRIIIa(V)
T8 sequence (P08637 other isoform, or with tags, fused parts or gaps limits assumed): as the sequence (P08637 other isoform, or with tags, fused parts or gaps limits assumed) above
Protocol: as §1

| Binder | relative binding (human FcγRIa [1]) | relative binding (human FcγRIIa type R) | relative binding (human FcγRIIa type H [2]) | relative binding (human FcγRIIb) | relative binding (human FcγRIIIa type V [3]) | relative binding activity (human FcγRIa [4]) | relative binding activity (human FcγRIIa type H [5]) | relative binding activity (human FcγRIIIa type V [6]) |
| --- | --- | --- | --- | --- | --- | --- | --- | --- |
| IL6R-BP119/IL6R-L (antibody, human IgG1, copies: 2 + 2) heavy: QVQLQESGPGLVKPSETLSLTCAVSGHSISHDHAWSWVRQPPGEGLEWIGFISYSGITNYNPSLQGRVTISRDNSKNTLYLQMNSLRAEDTAVYYCARSLARTTAMDYWGEGTLVTVSSASTKGPSVFPLAPSSKSTSGGTAALGCLVKDYFPEPVTVSWNSGALTSGVHTFPAVLQSSGLYSLSSVVTVPSSSLGTQTYICNVNHKPSNTKVDKKVEPKSCDKTHTCPPCPAPELLGGDSVFLFPPKPKDTLMISRTPEVTCVVVDVSHEDPEVKFNWYVDGVEVHNAKTKPREEQYNSTYRVVSVLTVLHQDWLNGKEYKCKVSNMALPAPIEKTISKAKGQPREPQVYTLPPSRDELTKNQVSLTCLVKGFYPSDIAVEWESNGQPENNYKTTPPVLDSDGSFFLYSKLTVDKSRWQQGNVFSCSVMHEALHNHYTQESLSLSP light: DIQMTQSPSSLSASVGDRVTITCRASQDISSYLNWYQQKPGKAPKLLIYYTSRLHSGVPSRFSGSGSGTDFTFTISSLQPEDIATYYCQQGNTLPYTFGQGTKVEIK | 117 relative value (IL6R-BF648/IL6R-L = 100) | 181 relative value (IL6R-BF648/IL6R-L = 100) | 133 relative value (IL6R-BF648/IL6R-L = 100) | 110 relative value (IL6R-BF648/IL6R-L = 100) | 145 relative value (IL6R-BF648/IL6R-L = 100) |  |  |  |
| IL6R-BF648/IL6R-L (antibody, human IgG1, IL6R-B3 with P238D; copies: 2 + 2) heavy: not shown light: DIQMTQSPSSLSASVGDRVTITCRASQDISSYLNWYQQKPGKAPKLLIYYTSRLHSGVPSRFSGSGSGTDFTFTISSLQPEDIATYYCQQGNTLPYTFGQGTKVEIK | 100 relative value (IL6R-BF648/IL6R-L = 100) | 100 relative value (IL6R-BF648/IL6R-L = 100) | 100 relative value (IL6R-BF648/IL6R-L = 100) | 100 relative value (IL6R-BF648/IL6R-L = 100) | 100 relative value (IL6R-BF648/IL6R-L = 100) |  |  |  |
| IL6R-BP190/IL6R-L (antibody, human IgG1, The common L chain is IL6R-L; copies: 2 + 2) heavy: QVQLQESGPGLVKPSETLSLTCAVSGHSISHDHAWSWVRQPPGEGLEWIGFISYSGITNYNPSLQGRVTISRDNSKNTLYLQMNSLRAEDTAVYYCARSLARTTAMDYWGEGTLVTVSSASTKGPSVFPLAPSSKSTSGGTAALGCLVKDYFPEPVTVSWNSGALTSGVHTFPAVLQSSGLYSLSSVVTVPSSSLGTQTYICNVNHKPSNTKVDKKVEPKSCDKTHTCPPCPAPELLGDDSVFLFPPKPKDTLMISRTPEVTCVVVDVSDEDGEVKFNWYVDGVEVHNAKTKPREEQYNSTYRVVSVLTVLHQDWLNGKEYKCKVSNKALPKPIEKTISKAKGQPREPQVYTLPPSRDELTKNQVSLTCLVKGFYPSDIAVEWESNGQPENNYKTTPPVLDSDGSFFLYSKLTVDKSRWQQGNVFSCSVMHEALHNHYTQESLSLSP light: DIQMTQSPSSLSASVGDRVTITCRASQDISSYLNWYQQKPGKAPKLLIYYTSRLHSGVPSRFSGSGSGTDFTFTISSLQPEDIATYYCQQGNTLPYTFGQGTKVEIK |  |  |  |  |  | 50 % of IL6R-BF648/IL6R-L | 224 % of IL6R-BF648/IL6R-L | 155 % of IL6R-BF648/IL6R-L |
| IL6R-BP121/IL6R-L (antibody, human IgG1, copies: 2 + 2) heavy: QVQLQESGPGLVKPSETLSLTCAVSGHSISHDHAWSWVRQPPGEGLEWIGFISYSGITNYNPSLQGRVTISRDNSKNTLYLQMNSLRAEDTAVYYCARSLARTTAMDYWGEGTLVTVSSASTKGPSVFPLAPSSKSTSGGTAALGCLVKDYFPEPVTVSWNSGALTSGVHTFPAVLQSSGLYSLSSVVTVPSSSLGTQTYICNVNHKPSNTKVDKKVEPKSCDKTHTCPPCPAPELLGGDSVFLFPPKPKDTLMISRTPEVTCVVVDVSHEDPEVKFNWYVDGVEVHNAKTKPREEQYNSTYRVVSVLTVLHQDWLNGKEYKCKVSNQALPAPIEKTISKAKGQPREPQVYTLPPSRDELTKNQVSLTCLVKGFYPSDIAVEWESNGQPENNYKTTPPVLDSDGSFFLYSKLTVDKSRWQQGNVFSCSVMHEALHNHYTQESLSLSP light: DIQMTQSPSSLSASVGDRVTITCRASQDISSYLNWYQQKPGKAPKLLIYYTSRLHSGVPSRFSGSGSGTDFTFTISSLQPEDIATYYCQQGNTLPYTFGQGTKVEIK | 118 relative value (IL6R-BF648/IL6R-L = 100) | 155 relative value (IL6R-BF648/IL6R-L = 100) | 135 relative value (IL6R-BF648/IL6R-L = 100) | 113 relative value (IL6R-BF648/IL6R-L = 100) | 157 relative value (IL6R-BF648/IL6R-L = 100) |  |  |  |
| IL6R-BP191/IL6R-L (antibody, human IgG1, The common L chain is IL6R-L; copies: 2 + 2) heavy: QVQLQESGPGLVKPSETLSLTCAVSGHSISHDHAWSWVRQPPGEGLEWIGFISYSGITNYNPSLQGRVTISRDNSKNTLYLQMNSLRAEDTAVYYCARSLARTTAMDYWGEGTLVTVSSASTKGPSVFPLAPSSKSTSGGTAALGCLVKDYFPEPVTVSWNSGALTSGVHTFPAVLQSSGLYSLSSVVTVPSSSLGTQTYICNVNHKPSNTKVDKKVEPKSCDKTHTCPPCPAPDLLGGDSVFLFPPKPKDTLMISRTPEVTCVVVDVSDEDGEVKFNWYVDGVEVHNAKTKPREEQYNSTYRVVSVLTVLHQDWLNGKEYKCKVSNAALPKPIEKTISKAKGQPREPQVYTLPPSRDELTKNQVSLTCLVKGFYPSDIAVEWESNGQPENNYKTTPPVLDSDGSFFLYSKLTVDKSRWQQGNVFSCSVMHEALHNHYTQESLSLSP light: DIQMTQSPSSLSASVGDRVTITCRASQDISSYLNWYQQKPGKAPKLLIYYTSRLHSGVPSRFSGSGSGTDFTFTISSLQPEDIATYYCQQGNTLPYTFGQGTKVEIK |  |  |  |  |  | 125 % of IL6R-BF648/IL6R-L | 145 % of IL6R-BF648/IL6R-L | 142 % of IL6R-BF648/IL6R-L |

Continued, values first:

| relative binding (human FcγRIa [1]) | relative binding (human FcγRIIa type R) | relative binding (human FcγRIIa type H [2]) | relative binding (human FcγRIIb) | relative binding (human FcγRIIIa type V [3]) | relative binding activity (human FcγRIa [4]) | relative binding activity (human FcγRIIa type H [5]) | relative binding activity (human FcγRIIIa type V [6]) | Binder |
| --- | --- | --- | --- | --- | --- | --- | --- | --- |
| 60 relative value (IL6R-BF648/IL6R-L = 100) | 81 relative value (IL6R-BF648/IL6R-L = 100) | 93 relative value (IL6R-BF648/IL6R-L = 100) | 103 relative value (IL6R-BF648/IL6R-L = 100) | 97 relative value (IL6R-BF648/IL6R-L = 100) |  |  |  | IL6R-BP912/IL6R-L (antibody, human IgG1, copies: 2 + 2) heavy: QVQLQESGPGLVKPSETLSLTCAVSGHSISHDHAWSWVRQPPGEGLEWIGFISYSGITNYNPSLQGRVTISRDNSKNTLYLQMNSLRAEDTAVYYCARSLARTTAMDYWGEGTLVTVSSASTKGPSVFPLAPSSKSTSGGTAALGCLVKDYFPEPVTVSWNSGALTSGVHTFPAVLQSSGLYSLSSVVTVPSSSLGTQTYICNVNHKPSNTKVDKKVEPKSCDKTHTCPPCPAPELLGGDSVFLFPPKPKDTLMISRTPEVTCVVVDVSHEDPEVKFNWYVDGVEVHNAKTKPREEQYNSTYRVVSVLTVLHQDWLNGKEYKCKVSNKALPRPIEKTISKAKGQPREPQVYTLPPSRDELTKNQVSLTCLVKGFYPSDIAVEWESNGQPENNYKTTPPVLDSDGSFFLYSKLTVDKSRWQQGNVFSCSVMHEALHNHYTQESLSLSP light: DIQMTQSPSSLSASVGDRVTITCRASQDISSYLNWYQQKPGKAPKLLIYYTSRLHSGVPSRFSGSGSGTDFTFTISSLQPEDIATYYCQQGNTLPYTFGQGTKVEIK |
| 140 relative value (IL6R-BF648/IL6R-L = 100) | 650 relative value (IL6R-BF648/IL6R-L = 100) | 1670 relative value (IL6R-BF648/IL6R-L = 100) | 62 relative value (IL6R-BF648/IL6R-L = 100) | 3350 relative value (IL6R-BF648/IL6R-L = 100) |  |  |  | IL6R-G1d/IL6R-L (antibody, human IgG1, Anti-human IL-6 receptor IgG1 with G1d constant region (C-terminal Gly and Lys removed); also called IgG1; copies: 2 + 2) heavy: not shown light: DIQMTQSPSSLSASVGDRVTITCRASQDISSYLNWYQQKPGKAPKLLIYYTSRLHSGVPSRFSGSGSGTDFTFTISSLQPEDIATYYCQQGNTLPYTFGQGTKVEIK |
|  |  |  |  |  | 68 % of IL6R-BF648/IL6R-L | 344 % of IL6R-BF648/IL6R-L | 221 % of IL6R-BF648/IL6R-L | IL6R-BP195/IL6R-L (antibody, human IgG1, The common L chain is IL6R-L; copies: 2 + 2) heavy: QVQLQESGPGLVKPSETLSLTCAVSGHSISHDHAWSWVRQPPGEGLEWIGFISYSGITNYNPSLQGRVTISRDNSKNTLYLQMNSLRAEDTAVYYCARSLARTTAMDYWGEGTLVTVSSASTKGPSVFPLAPSSKSTSGGTAALGCLVKDYFPEPVTVSWNSGALTSGVHTFPAVLQSSGLYSLSSVVTVPSSSLGTQTYICNVNHKPSNTKVDKKVEPKSCDKTHTCPPCPAPDYLGDDSVFLFPPKPKDTLMISRTPEVTCVVVDVSDEDGEVKFNWYVDGVEVHNAKTKPREEQDNSTYRVVSVLTVLHQDWLNGKEYKCKVSNAALPKPIEKTISKAKGQPREPQVYTLPPSRDELTKNQVSLTCLVKGFYPSDIAVEWESNGQPENNYKTTPPVLDSDGSFFLYSKLTVDKSRWQQGNVFSCSVMHEALHNHYTQESLSLSP light: DIQMTQSPSSLSASVGDRVTITCRASQDISSYLNWYQQKPGKAPKLLIYYTSRLHSGVPSRFSGSGSGTDFTFTISSLQPEDIATYYCQQGNTLPYTFGQGTKVEIK |
